# Source: patent US20240254220A1, “COMBINED THERAPY USING ANTI-CD300C ANTIBODY” (CentricsBio, Inc., priority 2021, published 2024)
# B1: CL7: anti-CD300c monoclonal antibody, VH3VL1 phage library, VH SEQ ID 327, VL SEQ ID 328 (antibody, V domains shown)
# VH: EVQLLESGGGLVQPGGSLRLSCAASGFTFSRYAMSWVRQAPGKGLEWVSAISGSGGSTYYADSVKGRFTISRDNSKNTLYLQMNSLRAEDTAVYYCARSSQGIFDIWGQGTLVTVSS
# VL: QSVLTQPPSASGTPGQRVTISCSGNNIGTRRVHWYQQLPDTAPKLLIYSKNNRPSGVPDRFSGSKSGTSASLAISGLRSEDEADYYCAAWDDSLSGPVFGGGTKLTVL
# modifications: CL7 Heavy Chain Variable Region; CL7 Light Chain Variable Region
# Columns and labels:
# [1] = test system: colon cancer cell line (CT26) tumor; assay: IFN-g ELISPOT of spleen in CT26 syngeneic mouse tumor model; type: in vivo, BALB/c mice; details: 25 mg/kg i.p., day 25
# Procedure: In order to identify effects of the anti-CD300c monoclonal antibody CL7 on CD8+ T cells under in vivo conditions, syngeneic mouse tumor models were prepared as in Experimental Example 3.2 and administered the anti-CD300c monoclonal antibody at the same concentration. On day 25 after injection, the mice were sacrificed, and spleen were collected from each of six mice in the CL7 25 mg/kg administration group showing a highest antitumor effect compared with the control group. Subsequently, the results were identified by measuring IFN-g through ELISPOT assay. Specifically, the Mouse IFN-g ELISpot kit was purchased from R&D Systems (#EL485), and IFN-g was measured according to the protocol for the kit.
# [2] = test system: colon cancer cell line (CT26) tumor; assay: In vivo cancer growth inhibition, CT26 model, CL7 and anti-PD-1; parameters: species or system BALB/c mice; details: CL7 10 mg/kg, anti-PD-1 10 mg/kg i.p. D12, D15, D19, D22; 25 days
# Procedure: In order to identify anticancer effects of the anti-CD300c monoclonal antibody CL7 under in vivo conditions, a colon cancer cell line (CT26) at 2×10^5 cells was transplanted by subcutaneous injection into 8-week-old BALB/c mice to prepare syngeneic mouse tumor models. Animal breeding and experiments were all conducted in a SPF facility. On day 12 (D12) after transplantation of the colon cancer cell line, the mice with a tumor size of 50 mm^3 to 100 mm^3 were administered the anti-CD300c monoclonal antibody and an anti-PD-1 antibody purchased from BioXcell alone or in combination, and for a control group, the mice were administered the same amount of phosphate buffered saline (PBS). Specifically, the mice were intraperitoneally injected with the respective antibodies (CL7: 10 mg/kg; and anti-PD-1 antibody: 10 mg/kg) alone or in combination, twice a week for two weeks (a total of 4 times on D12, D15, D19, and D22). The tumor volume was measured for 25 days.
molecule,measurement,setting,value
B1,expression of IFN-g (ELISPOT),[1],increased
same,cancer growth (tumor volume),[2],inhibited
